Assay results reported in patent publication US20260227403A1 (HENRY M JACKSON FOUNDATION FOR THE ADVANCEMENT OF MILITARY …, published 2026).

Columns and labels:
FLAG-SPDEF (NM_012391) = target: T1, FLAG-SPDEF (NM_012391) (UniProt O95238 1-335); test: immunoblot of cell lysates (HEK-293 2 µg per lane) probed with 29E4; the protein is shown present in panels D and F
T1 construct: Expressed in HEK-293 cells and tested as cell lysate on an immunoblot; also called SAM pointed domain-containing ETS transcription factor; not shown: FLAG tag
T1 sequence (looked up): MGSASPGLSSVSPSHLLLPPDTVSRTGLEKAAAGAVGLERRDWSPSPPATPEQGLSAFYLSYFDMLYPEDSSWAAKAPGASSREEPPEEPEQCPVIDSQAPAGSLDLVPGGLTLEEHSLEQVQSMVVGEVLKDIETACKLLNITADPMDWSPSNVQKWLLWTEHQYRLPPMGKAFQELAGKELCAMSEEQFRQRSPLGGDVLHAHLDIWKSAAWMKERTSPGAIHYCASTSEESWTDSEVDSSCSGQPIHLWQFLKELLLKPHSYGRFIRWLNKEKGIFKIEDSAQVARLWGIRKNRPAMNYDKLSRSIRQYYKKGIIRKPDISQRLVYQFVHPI
Procedure: Immunoblots using antibodies against ETV1 (A and H), ETV4 (B), ERG (C), SPDEF (D), FLI1 (E), FLAG (F), and GAPDH (G), as a loading control. […] PC3 cells were transfected with 25 nM non-targeting (NT) siRNA or ETV-1 siRNA oligos (lanes 1 and 2, respectively). […] were infected with either a control vector (lane 10) or adenoviral vector expressing FLI1 (lanes 11).
Cell lysates were then cleared by centrifugation at 10,000×g for 15 minutes at 4° C. and transferred to fresh tubes. Protein concentration was measured using Protein Assay Reagent (Bio-Rad, Hercules, CA). […] Separated proteins were transferred onto PVDF membranes using a Trans-Blot SD semi-dry transfer cell (BioRad) at 25 V for 90 minutes. Membranes were blocked in blocking buffer (Tris buffered saline with 0.25% Tween 20 (TBST) containing 1% BSA) for one hour at room temperature before incubation with primary antibodies (1 ng/mL) for 12 hours at 4° C. Membranes were then washed with wash buffer (TBST) in three ten-minute washes before treatment with IRDye 680RD conjugated goat anti-rabbit or IRDye 800 RD conjugated goat anti-mouse secondary antibodies (LI-COR Biosciences, Lincoln, NE) for three hours at room temperature.

P41 = target: T2, P41; test: ELISA: 1 µg peptide coated per well, 29E4 at 20 ng/mL, HRP goat anti-rabbit Ig 1:16,000, ABS 450 nm, duplicates [CONT. 1]
T2 construct: N-terminal truncation of P1
T2 peptide: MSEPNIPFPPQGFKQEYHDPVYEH

P31 = target: T3, P31; test: as above
T3 construct: C-terminal truncation of P1
T3 peptide: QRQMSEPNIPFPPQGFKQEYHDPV

peptide P40 (…) = target: T4, peptide P40 (…) (human); test: as above
T4 construct: N-terminal truncation of the immunogenic peptide P1

P34 = target: T5, P34; test: as above
T5 construct: C-terminal truncation of P1
T5 peptide: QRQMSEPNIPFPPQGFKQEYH

P30 = target: T6, P30; test: as above
T6 construct: C-terminal truncation of P1

P39 = target: T7, P39; test: as above
T7 construct: N-terminal truncation of P1

P29 = target: T8, P29; test: as above
T8 construct: C-terminal truncation of P1

[1] = target: T9, peptide P38 (QRQMSEPNIPFPPQGFK) (human); test: as above
T9 construct: C-terminal truncation of the immunogenic peptide P1
T9 peptide: QRQMSEPNIPFPPQGFK

P42 = target: T10, P42; test: as above
T10 construct: N-terminal truncation of P1
T10 peptide: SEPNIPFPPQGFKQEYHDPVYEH

P50 = target: T11, P50; test: as above
T11 construct: C-terminal truncation of P1
T11 peptide: QRQMSEPNIPFPP

P33 = target: T12, P33; test: as above
T12 construct: C-terminal truncation of P1
T12 peptide: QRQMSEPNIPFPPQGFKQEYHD

P35 = target: T13, P35; test: as above
T13 construct: C-terminal truncation of P1
T13 peptide: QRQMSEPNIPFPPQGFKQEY

P36 = target: T14, P36; test: as above
T14 construct: C-terminal truncation of P1
T14 peptide: QRQMSEPNIPFPPQGFKQE

P49 = target: T15, P49; test: as above
T15 construct: C-terminal truncation of P1
T15 peptide: QRQMSEPNIPFPPQ

binding result (FLAG-SPDEF (NM_012391)): no binding | binding result (P41): binds | binding result (P31): binds | binding result (peptide P40 (…)): binds | binding result (P34): binds | binding result (P30): binds | binding result (P39): binds | binding result (P29): binds | binding result [1]: binds | binding result (P42): binds | binding result (P50): binds | binding result (P33): binds | binding result (P35): binds | binding result (P36): binds | binding result (P49): binds
B1: ETV1 rabbit monoclonal antibody (29E4) (antibody, V domains shown)
VH: QELEESGGDLVKPGASLTLTCTASGFFFSAENHICWVRQAPGKGLEWIGCVYIGSYVGGSGDPYYASWAKGRFTISKTSSTTVTLQMSSLTAADTATYFCARDLGSLWGPGTLVTVSS
VL: DVVMTQTASSVSAAVGGTVTIACQSSQSVYDNNNLAWFQQKPGQPPKRLIYSASTLASGVSSRFKGSGYGTQFTLTISDVQCDDAATYYCVGAFSGYIFVFGGGTEVVVK
notes: constant regions are not; also called 29E4 mAb; ETV1 29E4 mAb
